As usually defined, the Km is the substrate concentration at which the rate is half of its maximum. By kcat is commonly meant the number of substrate molecules converted per active site and unit of time at saturation.

Substrate in this data set: OC(CS)C(O)CS
The data set is described as follows: oxygen consumption, Clark-type electrode. The conditions noted are these: electron donor, co-substrate O2 (air, ~250 μM), 1 μM Erv1, SOD1 10 units/mL, 50 mM Tris/HCl, 150 mM NaCl, 1 mM EDTA, pH 7.4, 25 °C. It is filed as biochemical, Saccharomyces cerevisiae.

B1: Erv1 (yeast Erv1) (Saccharomyces cerevisiae S288C) (protein)
chain: MKAIDKMTDNPPQEGLSGRKIIYDEDGKPCRSCNTLLDFQYVTGKISNGLKNLSSNGKLAGTGALTGEASELMPGSRTYRKVDPPDVEQLGRSSWTLLHSVAASYPAQPTDQQKGEMKQFLNIFSHIYPCNWCAKDFEKYIRENAPQVESREELGRWMCEAHNKVNKKLRKPKFDCNFWEKRWKDGWDE
notes: WT, ERV1 gene in pET-24a(+), E. coli Rosetta-gami 2, Ni-NTA then size exclusion
On to B1, for which the Km worked out at 1500 ± 100 µM and the turnover number (kcat) amounted to 1.28 ± 0.03 s⁻¹.

Values taken from article PMC7155059, “Kinetic characterisation of Erv1, a key component for protein import and folding in yeast mitochondria” (The Febs Journal, 2019).
